Results on 7 molecules are retold here after PMC10397247.

One assay deals with T1, 4H446-AA.
T1 chain: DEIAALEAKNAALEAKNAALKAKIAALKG
Kind of assay: two-hybrid library CCmax.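 Also: natural log of median RNA to DNA barcode read ratio; higher means stronger binding.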 Conditions: mean of both orientations.

For the next assay, the target named is T2, 4H497-AA.
T2 chain: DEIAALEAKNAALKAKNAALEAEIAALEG
In words: two-hybrid library CCmax.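 Also: natural log of median RNA to DNA barcode read ratio; higher means stronger binding.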 The following applies: mean of both orientations.

Another assay concerns the target T3, 4H675-AA.
T3 chain: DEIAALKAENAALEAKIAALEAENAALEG
Kind of assay: two-hybrid library CCmax.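 Also: natural log of median RNA to DNA barcode read ratio; higher means stronger binding.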 Conditions: mean of both orientations.

In the next assay the target is T4, 4H478-AA.
T4 chain: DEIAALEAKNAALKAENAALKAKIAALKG
In words: two-hybrid library CCmax.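 Also: natural log of median RNA to DNA barcode read ratio; higher means stronger binding.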 Conditions: mean of both orientations.

In a further assay the target is T5, 4H63-AA.
T5 chain: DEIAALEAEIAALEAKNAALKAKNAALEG
In words: two-hybrid library CCmax.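 Also: natural log of median RNA to DNA barcode read ratio; higher means stronger binding.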 The following applies: mean of both orientations.

A further assay addresses T6, 4H656-AA.
T6 chain: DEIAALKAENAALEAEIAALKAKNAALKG
In words: two-hybrid library CCmax.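 Also: natural log of median RNA to DNA barcode read ratio; higher means stronger binding.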 The following applies: mean of both orientations.

The target of a further assay is T7, 4H483-AA.
T7 chain: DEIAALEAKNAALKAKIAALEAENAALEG
Kind of assay: two-hybrid library CCmax. The following applies: mean of both orientations.

The next assay has as its target T8, 4H971-AA.
T8 chain: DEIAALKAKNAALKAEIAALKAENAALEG
In words: two-hybrid library CCmax. Conditions: mean of both orientations.

In a further assay the target is T9, 4H3939-AA.
T9 chain: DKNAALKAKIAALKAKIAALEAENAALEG
Kind of assay: two-hybrid library CCmax.

A further assay has as its target T10, 4H3969-AA.
T10 chain: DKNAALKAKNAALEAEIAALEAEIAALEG
Kind of assay: two-hybrid library CCmax. Conditions: mean of both orientations.

Another assay addresses T11, 4H428-AA.
T11 chain: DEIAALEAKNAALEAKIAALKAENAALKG
Kind of assay: two-hybrid library CCmax. Conditions: mean of both orientations.

The next assay deals with T12, 4H464-AA.
T12 chain: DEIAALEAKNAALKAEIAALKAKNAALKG
Kind of assay: two-hybrid library CCmax. The following applies: mean of both orientations.

The next assay addresses T13, 4H452-AA.
T13 chain: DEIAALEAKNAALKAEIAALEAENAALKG
In words: two-hybrid library CCmax.

The next assay deals with T14, 4H56-AA.
T14 chain: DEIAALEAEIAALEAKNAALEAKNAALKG
Kind of assay: two-hybrid library CCmax. Conditions: mean of both orientations.

The next assay has as its target GCN2_T. In words: two-hybrid library CCmax.
A further assay deals with T15, 4H_APH.
T15 chain: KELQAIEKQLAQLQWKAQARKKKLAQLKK
In words: two-hybrid library CCmax.

The target of a further assay is 4H_GCN4. Kind of assay: two-hybrid library CCmax.
Sequence of 4H_GCN4 (chain, as listed by the source): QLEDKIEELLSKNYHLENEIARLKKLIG
Another assay addresses T16, 4H_BCR.
T16 chain: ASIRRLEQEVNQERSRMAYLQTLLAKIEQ
Kind of assay: two-hybrid library CCmax. The following applies: mean of both orientations.

The target of a further assay is T17, APC8516-AA.
T17 chain: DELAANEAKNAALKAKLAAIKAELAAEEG
In words: two-hybrid library CCmax.

The next assay has as its target T18, APC9291-AA.
T18 chain: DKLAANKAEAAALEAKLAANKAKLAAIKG
In words: two-hybrid library CCmax. The following applies: mean of both orientations.

Another assay has as its target T19, APC9182-AA.
T19 chain: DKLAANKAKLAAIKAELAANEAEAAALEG
Kind of assay: two-hybrid library CCmax. The following applies: mean of both orientations.

In the next assay the target is T20, APC9141-AA.
T20 chain: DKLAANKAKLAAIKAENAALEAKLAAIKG
Kind of assay: two-hybrid library CCmax. The following applies: mean of both orientations.

The target of the next assay is T21, APC9806-AA.
T21 chain: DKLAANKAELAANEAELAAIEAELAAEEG
In words: two-hybrid library CCmax. The following applies: mean of both orientations.

A further assay has as its target T22, APC9319-AA.
T22 chain: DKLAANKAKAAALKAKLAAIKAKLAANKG
Kind of assay: two-hybrid library CCmax.

For a further assay, the target named is T23, 4H3697-AA.
T23 chain: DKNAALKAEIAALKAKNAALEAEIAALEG
In words: two-hybrid library CCmax. The following applies: mean of both orientations.

A further assay deals with T24, 4H982-AA.
T24 chain: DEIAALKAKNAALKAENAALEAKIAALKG
In words: two-hybrid library CCmax. The following applies: mean of both orientations.

In another assay the target is T25, 4H697-AA.
T25 chain: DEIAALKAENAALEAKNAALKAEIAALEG
Kind of assay: two-hybrid library CCmax. The following applies: mean of both orientations.

For the next assay, the target named is T26, 4H3865-AA.
T26 chain: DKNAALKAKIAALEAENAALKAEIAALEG
In words: two-hybrid library CCmax. Conditions: mean of both orientations.

The target of the next assay is T27, 4H384-AA.
T27 chain: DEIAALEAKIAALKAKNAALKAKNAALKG
Kind of assay: two-hybrid library CCmax. The following applies: mean of both orientations.

In a further assay the target is T28, 4H3718-AA.
T28 chain: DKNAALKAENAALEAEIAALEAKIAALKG
In words: two-hybrid library CCmax. Conditions: mean of both orientations.

The next assay has as its target T29, 4H3631-AA.
T29 chain: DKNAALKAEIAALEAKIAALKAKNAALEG
In words: two-hybrid library CCmax. Conditions: mean of both orientations.

In a further assay the target is T30, 4H3588-AA.
T30 chain: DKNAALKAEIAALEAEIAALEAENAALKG
Kind of assay: two-hybrid library CCmax.

The next assay has as its target T31, 4H3606-AA.
T31 chain: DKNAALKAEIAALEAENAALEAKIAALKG
In words: two-hybrid library CCmax. Conditions: mean of both orientations.

The next assay concerns the target T32, 4H3629-AA.
T32 chain: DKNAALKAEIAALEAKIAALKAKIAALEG
Kind of assay: two-hybrid library CCmax.

Another assay concerns the target T33, 4H3777-AA.
T33 chain: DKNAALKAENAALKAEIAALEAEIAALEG
In words: two-hybrid library CCmax. Conditions: mean of both orientations.

In a further assay the target is T34, 4H3915-AA.
T34 chain: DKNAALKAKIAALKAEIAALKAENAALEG
In words: two-hybrid library CCmax. Conditions: mean of both orientations.

Another assay deals with T35, 4H380-AA.
T35 chain: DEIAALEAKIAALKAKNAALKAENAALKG
Kind of assay: two-hybrid library CCmax. Conditions: mean of both orientations.

The target of a further assay is T36, 4H432-AA.
T36 chain: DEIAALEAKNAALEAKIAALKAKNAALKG
In words: two-hybrid library CCmax. The following applies: mean of both orientations.

The target in the next assay is T37, 4H3974-AA.
T37 chain: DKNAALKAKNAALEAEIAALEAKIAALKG
In words: two-hybrid library CCmax. Conditions: mean of both orientations.

The target in another assay is T38, 4H3782-AA.
T38 chain: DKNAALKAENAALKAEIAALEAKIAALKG
In words: two-hybrid library CCmax. The following applies: mean of both orientations.

For another assay, the target named is T39, 4H968-bH.
T39 chain: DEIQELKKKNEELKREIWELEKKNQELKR
In words: two-hybrid library CCNG1.

Where two headings read alike, the source gives them in different places.

As to DKNAALKAKIAALKAKIAALEAENAALEG [4H3939-AA], the interaction score is -0.459 with 4H446-AA; -1.92 with 4H497-AA; -1.53 with 4H675-AA; -1.63 with 4H478-AA; 1.57 with 4H63-AA; -0.924 with 4H656-AA. In addition, the interaction score with 4H483-AA is -2.02; with 4H971-AA, -1.81; with 4H3939-AA, -1.07; in the assay with 4H3969-AA, -0.371; with 4H428-AA, -1.64; with 4H464-AA, -1.97.

As for DEIAALEAKNAALKAEIAALEAENAALKG [4H452-AA], the interaction score was -0.395 in the assay with 4H452-AA; -1.4 with 4H56-AA; -0.726 with GCN2_T; -1.91 in the assay with 4H_APH; -0.935 with 4H_GCN4; -1.94 with 4H_BCR.

For DELAANEAKNAALKAKLAAIKAELAAEEG [APC8516-AA], the interaction score in the assay with APC8516-AA is -1.87; with APC9291-AA it was -1.91; in the assay with APC9182-AA, -1.64; with APC9141-AA, -1.56; in the assay with APC9806-AA it was -1.63.

The molecule DKLAANKAKAAALKAKLAAIKAKLAANKG [APC9319-AA] yielded an interaction score in the assay with APC9319-AA of -1.58.

For the molecule DKNAALKAEIAALEAEIAALEAENAALKG [4H3588-AA], the interaction score with 4H3697-AA was -2.28; with 4H982-AA it was -1.37; in the assay with 4H697-AA, -1.44; with 4H3865-AA it was -1.15; in the assay with 4H384-AA, 1.38; in the assay with 4H3718-AA, 0.71. For the same molecule, the results for the interaction score with 4H3631-AA, in the assay with 4H3588-AA and with 4H3606-AA were -0.285, -1.05 and -1.57, respectively.

DKNAALKAEIAALEAKIAALKAKIAALEG [4H3629-AA]: the interaction score was 1.82 with 4H3629-AA; -1.96 with 4H446-AA; -0.576 with 4H3777-AA; -0.266 with 4H63-AA; -1.87 with 4H483-AA; -0.964 in the assay with 4H3939-AA (mean of both orientations). For the same molecule, the interaction score with 4H3915-AA was -0.761; in the assay with 4H3969-AA it was -1.01; in the assay with 4H464-AA, -1.75; with 4H380-AA, -1.46; in the assay with 4H432-AA, -2.37; in the assay with 4H3974-AA it was 0.236. This molecule had an interaction score with 4H3782-AA of -0.119.

Molecule DEIQELKKKNEELKREIWELEKKNQELKR [4H968-bH] had an interaction score with 4H968-bH of 0.196.
